This passage reports Kd results from patent US20170209564A1.

A word on the Kd: it is the concentration at which binding is half-saturated.

In the assay the target is s127H1-t2 (Influenza A virus H1N1 A/Brisbane/59/2007). Conditions: remark: other sources report otherwise.

B1: monoclonal antibody CR6261 (antibody, V domains shown)
VH: EVQLVESGAEVKKPGSSVKVSCKASGGPFRSYAISWVRQAPGQGPEWMGGIIPIFGTTKYAPKFQGRVTITADDFAGTVYMELSSLRSEDTAMYYCAKHMGYQVRETMDVWGKGTTVTVSS
VL: QSVLTQPPSVSAAPGQKVTISCSGSSSNIGNDYVSWYQQLPGTAPKLLIYDNNKRPSGIPDRFSGSKSGTSATLGITGLQTGDEANYYCATWDRRPTAYVVFGGGTKLTVLG
In turn, B1 displayed a Kd of 3.5 nM.
